One test has as its system fall armyworm. The note with it: applied alone, without other pheromone components; cited from earlier work.
Test [1] in a line: production of (Z)-9-tetradecen-1-yl acetate by S. cerevisiae CEN.PK102-5B strains, GC-MS. The note with it: overexpression of desaturase, ST5290 versus ST4854.
Protocol: The strains for production of pheromone were created on the basis of S. cerevisiae CEN.PK102-5B, which had active OLE1 and ELO1 genes.
Strains ST4854 and ST5290 were inoculated into 5 ml synthetic complete medium (lacking histidine, leucine, tryptophan supplemented with 20 mg/L uracil and 76 mg/L histidine) and cultivated in 12-ml glass tubes (Duran, Wertheim, Germany) with metal labocap lids (Lüdiswiss, Flawil, Switzerland) overnight at 30° C. with shaking at 250 rpm. The following day the overnight culture was centrifuged, the supernatant was discarded and the pellet was resuspended in 2 ml of mineral medium, which had the composition as described in (Jensen et al, 2014). The medium was supplemented with 76 mg/L histidine and 20 mg/L uracil. The cultures were incubated at 30° C. with shaking at 250 rpm for 48 hours.
1 mL sample of culture was transferred into a 4-mL glass vial and 10 μL of internal standard stock (1 μg/μl (Z)10-heptan-1-yl methyl ester in 100% ethanol) was added. The vials were covered with small pieces of aluminum foil and we used a needle to pierce small holes in the foil covers. The samples were vortexed and placed at −80° C. for storage until analysis. […] The concentration of (Z)-9-tetradecen-1-yl acetate was calculated based on internal standard.
The next test concerns C14-CoA substrate. Kind of test: activity and specificity of heterologous desaturases in yeast fed methyl myristate, FAMEs by GC-MS. Format: cell-based, S. cerevisiae. The note with it: among the tested desaturases.

The values below come from patent US11434506B2, “Production of desaturated fatty alcohols and desaturated fatty alcohol acetates in yeast” (Danmarks Tekniske Universitet, priority 2016, dated 2022).

Regarding `CCCC/C=C\CCCCCCCCOC(C)=O` [(Z)19-14:OAc, (Z)9-tetradecen-1-yl acetate], the “disruption of mating efficiency” value in the test on fall armyworm is given as 86%.

B1: D. melanogaster desaturase: Δ9 desaturase from Drosophila melanogaster Dmd9, SEQ ID NO: 10 (protein)
chain: MAPYSRIYHQDKSSRETGVLFEDDAQTVDSDLTTDRFQLKRAEKRRLPLVWRNIILFALVHLAALYGLHSIFTRAKLATTLFAAGLYIIGMLGVTAGAHRLWAHRTYKAKWPLRLLLVIFNTIAFQDAVYHWARDHRVHHKYSETDADPHNATRGFFFSHVGWLLCKKHPDIKEKGRGLDLSDLRADPILMFQRKHYYILMPLACFVLPTVIPMVYWNETLASSWFVATMFRWCFQLNMTWLVNSAAHKFGNRPYDKTMNPTQNAFVSAFTFGEGWHNYHHAFPWDYKTAEWGCYSLNITTAFIDLFAKIGWAYDLKTVAPDVIQRRVLRTGDGSHELWGWGDKDLTAEDARNVLLVDKSR
modifications: Drosophila melanogaster
Regarding B1, the “increase of titer of Z9:14:OAc” value in test [1] is given as “more than 5 fold”. Moreover, the “activity and specificity towards C14-CoA substrate” value in the test with C14-CoA substrate was “highest activity and specificity”.
